Source: paper PMC5395944

Target: PglK-E510Q (C. jejuni) (UniProt Q0P9C4)
Experiment: crystal structure

With “PglK-E510Q (from UniProt Q0P9C4) (natural protein)” the stoichiometry N was 2.
